{"source": "paper PMC60004", "key": {"[1]": {"target": "Bombyx mori cadherin-like receptor BtR175, native, 175 kDa (Bombyx mori (endogenous in larval midgut))", "assay": "SPR"}, "[2]": {"target": "Bombyx mori aminopeptidase N, native, 115-kDa (115-120 kDa) Cry1Aa-binding receptor (Bombyx mori (endogenous in larval midgut))", "assay": "SPR"}}}
{"substance": "Hybrid toxin 4109 (domains I and II of Cry1Aa, domain III of Cry1Ac)", "values": [{"measurement": "Kd", "setting": "[1]", "result": 2.6, "unit": "nM"}, {"measurement": "koff", "setting": "[1]", "result": "3.34e-05", "unit": "s⁻¹"}, {"measurement": "kon", "setting": "[1]", "result": 13000, "unit": "M⁻¹ s⁻¹"}, {"measurement": "Kd", "setting": "[2]", "result": 78, "unit": "nM"}, {"measurement": "koff", "setting": "[2]", "result": 0.0015, "unit": "s⁻¹"}, {"measurement": "kon", "setting": "[2]", "result": 19000, "unit": "M⁻¹ s⁻¹"}]}
